Measured values: patent US20190203224A1

Tests used:
[1] = molecular target: Brush border membrane vesicles (BBMV) prepared from midguts of third instar western corn rootworm (Diabrotica virgifera virgifera LeConte) larvae; putative receptor(s) on the BBMV (Diabrotica virgifera virgifera)
[2] = molecular target: Brush border membrane vesicles (BBMV) prepared from midguts of third instar western corn rootworm (Diabrotica virgifera virgifera LeConte) larvae; putative receptor(s) on the BBMV (Diabrotica virgifera virgifera); remark: listed apart in the source

Row | Substance | Bmax (binding site concentration) (pmole/ug BBMV) [1] | Kd [2] [nM]
1 | Cry3Aa trypsin core (trypsin-truncated Cry3Aa core protein) (from UniProt P0A379 159-644) | 146 | 24
2 | Cry35Ab1 chymotrypsin core (chymotrypsin-truncated Cry35Ab1 core protein) (from UniProt Q939S9 1-354) | 31.7 | 2.31
